Source: patent US20250340881A1, “PHARMACEUTICAL COMPOSITION FOR TREATING CANCER COMPRISING FOXM1 MUTANT OR FOXM1 SHRNA” (Industry-University Cooperation Foundation Hanyang …, priority 2022, published 2025)

B1: FoxM1 WT: wild-type FoxM1 protein (SEQ ID NO: 1) over-expressed by lentivirus in A549 cells (protein, listed as Homo sapiens)
chain: MKTSPRRPLILKRRRLPLPVQNAPSETSEEEPKRSPAQQESNQAEASKEVAESNSCKFPAGIKIINHPTMPNTQVVAIPNNANIHSIITALTAKGKESGSSGPNKFILISCGGAPTQPPGLRPQTQTSYDAKRTEVTLETLGPKPAARDVNLPRPPGALCEQKRETCDGEAAGCTINNSLSNIQWLRKMSSDGLGSRSIKQEMEEKENCHLEQRQVKVEEPSRPSASWQNSVSERPPYSYMAMIQFAINSTERKRMTLKDIYTWIEDHFPYFKHIAKPGWKNSIRHNLSLHDMFVRETSANGKVSFWTIHPSANRYLTLDQVFKQQQKRPNPELRRNMTIKTELPLGARRKMKPLLPRVSSYLVPIQFPVNQSLVLQPSVKVPLPLAASLMSSELARHSKRVRIAPKVLLAEEGIAPLSSAGPGKEEKLLFGEGFSPLLPVQTIKEEEIQPGEEMPHLARPIKVESPPLEEWPSPAPSFKEESSHSWEDSSQSPTPRPKKSYSGLRSPTRCVSEMLVIQHRERRERSRSRRKQHLLPPCVDEPELLFSEGPSTSRWAAELPFPADSSDPASQLSYSQEVGGPFKTPIKETLPISSTPSKSVLPRTPESWRLTPPAKVGGLDFSPVQTSQGASDPLPDPLGLMDLSTTPLQSAPPLESPQRLLSSEPLDLISVPFGNSSPSDIDVPKPGSPEPQVSGLAANRSLTEGLVLDTMNDSLSKILLDISFPGLDEDPLGPDNINWSQFIPELQ

Experiments:
A549 lung cancer cells [1] = experiment: Real-time PCR of EMT, M2-inducing and immune evasion factors in A549 cells treated with Thiostrepton; type: cell-based; settings: 5 μM, 48 h, Mock and S25E cells
A549 cells [2] = experiment: ELISA of TGFB1 and VEGFA proteins in A549 culture medium; type: cell-based; settings: medium cultured 48 h
Description: (§1) In addition, after co-culturing of human monocyte THP-1 cells and cell groups over-expressing FoxM1 point mutations for 48 hours under the conditions where the previous experiments were performed, the mRNA expression levels of M2d-inducing factors IL4, IL6, IL10, and VEGFA in A549 cells expressing FoxM1 S25E were analyzed. […] The amounts of TGFB1 and VEGFA proteins in the medium cultured for 48 h with A549 cells (4×10^4 cells/ml) expressing FoxM1 variants were measured by ELISA.

lung tissues = experiment: CD68 and CD163 immunostaining and immunoblot of lung tissues of injected mice; type: in vivo; settings: lung tissues of injected mice
Description: Additionally, the increase of macrophages around the tumor was examined by immunoblot using lung tissue lysates. […] Through the results of this study, it could be observed that the non-phosphorylated point mutant had the effect of inhibiting polarization into tumor-associated macrophages.
Furthermore, CD68, a marker for a broad range of macrophages, and CD163, a marker for tumor-associated macrophages, were analyzed in lung tissues of mice using immunostaining. It was determined that the expression of both CD68 and CD163 markers was increased in the lung tissues of mice injected with the FoxM1 WT protein over-expressed cells (FIG. 13D). Through the present results, it could be observed that there was an effect of promoting the polarization of M2 tumor-associated macrophages in lung cancer cells expressing the FoxM1 WT protein.

A549 cells [3] = experiment: M2d-inducing factor mRNA in A549 cells after co-culture with THP-1 cells; type: cell-based; settings: co-culture with THP-1 48 hours
Description: as §1

A549 lung cancer cells [4] = experiment: EMT marker expression (immunoblot, real-time PCR) in A549 cells expressing FoxM1 WT or mutants; type: cell-based; settings: FoxM1 WT
Source text: To establish a stabilized cell line expressing WT, phosphorylation, and non-phosphorylated point mutants of FoxM1 in lung cancer cells, A549 cells were first infected with pLVX-Tet3G expressing lentivirus, and the infected cells were selected by treating with G418 for 5 days. The selected A549Tet3G cells were infected with lentiviruses expressing WT and phosphorylated point mutants (S25E, S361E, S715E) and non-phosphorylated point mutants (S25A, S361A, S715A) of FoxM1, and then treated with puromycin for 48 hours to establish a stabilized cell line. The established cells were treated with 2 μg/ml of doxycycline to induce expression of WT, phosphorylation, and non-phosphorylated point mutants of FoxM1, and the mRNA and protein expression levels of each FoxM1 point mutant were determined to confirm whether they were well expressed. As shown in FIG. 4A and FIG. 4B, it was confirmed that the WT and each point mutant form of FoxM1 were well expressed through mRNA and protein expression levels. It was observed that the expression levels of N-cadherin and vimentin were higher, and the expression levels of E-cadherin were lower in lung cancer cells expressing the phosphorylated form of FoxM1, specifically, phosphorylated at the phosphorylation site S25, compared to the cells expressing the non-phosphorylated form of FoxM1. In addition, when it was examined whether the expression of these phosphorylation and non-phosphorylated point mutants of FoxM1 affected cell proliferation, it was observed that it had no significant effect on cell proliferation (FIG. 4C).
To establish a stabilized cell line expressing FoxM1 WT in A549 lung cancer cells, first, pLVX-Tet3G expressing lentivirus was infected into cells, and the infected cells were selected by treating 500 μg/ml of G418 for 5 days. The selected A549^Tet3G cells were infected with lentiviruses expressing FoxM1 WT or Mock, and the stabilized cell lines were established by treating with 2 μg/ml of puromycin for 48 hours. After inducing the expression of FoxM1 WT by treating the established cells with 2 μg/ml of doxycycline, the protein expression was observed by immunoblot.

THP-1 cells = experiment: M1 and M2 marker mRNA in THP-1 cells co-cultured with FoxM1-expressing A549 cells; type: cell-based, human; settings: co-culture 48 h
Source text: In the animal tissues, it was confirmed that both PD-L1 protein expression and CD274 mRNA expression were increased in cancer cells expressing FoxM1 (FIG. 5D, 5E). […] From the results described above, we investigated whether FoxM1 phosphorylated point mutant (S25E) affects the polarization of macrophages in the tumor microenvironment. After co-culturing human monocyte THP-1 cells and the cell groups over-expressing FoxM1 point mutants, M1 and M2 markers were examined in THP-1 cells.
Next, an expression suppression system for suppressing FoxM1 expression was established to observe whether the FoxM1 phosphorylated point mutant (S25E) directly affects polarization to M2 macrophages. First, to inhibit the expression of mRNA of FoxM1, a pLKO-puro.1-hFoxM1 plasmid was produced using a pLKO-puro.1 vector to construct shRNAs targeting nucleotide sequences at 709-729 positions in the human FoxM1 mRNA sequence. The following sequences can be used as target sequences for human FoxM1 shRNA production, and oligonucleotides with the following sequences can be used as primers for shRNA production. The gene accession number for human FoxM1 mRNA in PubMed is NM_001243088.2, and it contains 3507 bp. The following primers were used for shRNA production: 5′-ccgg-[…]-ctcgag-[…]-tttttg-3′ (forward primer) and 5′-aattcaaaaa-AGCAAG AGATGGAGGAAAAGG-ctcgag-[…]-3′ (reverse primer). Then, after purifying and concentrating each lentivirus for expression of the produced FoxM1 shRNA, it was constructed by infecting a lung cancer cell line, A549 cells expressing FoxM1, with the virus. The mRNA expression of M2 markers, CD163, CD206, and VEGFA, was examined after co-culturing lung cancer cells (4×10^4 cells/ml) with suppressed FoxM1 expression and THP-1 cells (1.2×10^5 cells/ml) for 48 h. […] When co-culturing with cancer cells expressing the FoxM1 variant S25E, it was confirmed that the M2 markers CD163, CD206, and VEGFA were all increased by 2 folds or more in THP1 cells compared to the control group (Mock_shCtrl) (FIG. 6D).
After co-culturing the FoxM1 WT protein over-expressed cancer cells (4×10^4 cells/ml) and THP-1 cells (1.2×10^5 cells/ml) for 48 h, the mRNA expression of M1 markers INOS and IL12B was not altered, while the mRNA expression of all the M2 markers IL10, CD163, CD206, TGFB1, and VEGFA was increased in the FoxM1 WT (FIG. 13A). Among them, CD206, TGFB1, and VEGFA had been known as markers for M2d-tumor-associated macrophages (M2d-TAM) (JAYASINGAM, Sharmilla Devi, et al., Frontiers in Oncology (2020) 9: 1512.).

A549 cells [5] = experiment: PD-L1 (CD274) mRNA in A549 cells by real-time PCR; type: cell-based; settings: A549 cells expressing the protein
Description: To examine the mRNA expression levels of PD-1 and PD-L1, which are involved in solid tumor immune evasion, in THP-1 cells and the cells expressing the FoxM1 phosphorylated point mutant, the expression of PD-1 (CD279) mRNA, an immune evasion factor, was measured by qRT-PCR in THP-1 monocytes co-cultured with A549^S25E cells for 48 h (FIG. 7B). It was observed that the expression of mRNA of PD-L1 (CD274), an immune evasion factor, increased by 2 folds in the A549^S25E cells expressing the phosphorylated point mutant compared to the control group.

Row | Molecule | expression of IL6, VEGFA and CD274 (PD-L1) (A549 lung cancer cells [1]) | expression of mesenchymal markers CDH2, vimentin, SNAI1 and SNAI2 (A549 lung cancer cells [1]) | expression of IL6, VEGFA and CD274 (PD-L1) (A549 lung cancer cells [1]; listed as thiostepton) | expression of mesenchymal markers CDH2, vimentin, SNAI1 and SNAI2 (A549 lung cancer cells [1]; listed as thiostepton) | amounts of TGFB1 and VEGFA proteins in medium (in words) (A549 cells [2]) | expression of CD68 and CD163 markers, immunostaining (in words) (lung tissues) | mRNA expression levels of M2d-inducing factors IL4, IL6, IL10 and VEGFA in A549 cells (in words) (A549 cells [3]) | FoxM1 expression, real-time polymerase chain reaction (A549 lung cancer cells [4]) [folds] | expression of E-cadherin, real-time polymerase chain reaction (reduced by) (A549 lung cancer cells [4]) [folds] | expression of N-cadherin, real-time polymerase chain reaction (A549 lung cancer cells [4]) [folds] | expression of vimentin, real-time polymerase chain reaction (A549 lung cancer cells [4]) [folds] | expression of E-cadherin, immunoblot (decreased by) (A549 lung cancer cells [4]; doxycycline 2 μg/ml) [folds] | expression of N-cadherin, immunoblot (A549 lung cancer cells [4]; doxycycline 2 μg/ml) [folds] | expression of vimentin, immunoblot (A549 lung cancer cells [4]; doxycycline 2 μg/ml) [folds] | mRNA expression of M1 markers INOS and IL12B in THP-1 cells (THP-1 cells) | mRNA expression of M2 markers IL10, CD163, CD206, TGFB1 and VEGFA in THP-1 cells (in words) (THP-1 cells) | mRNA expression of PD-L1 (CD274) compared to the control group (A549 cells [5])
1 | C=C(NC(=O)C(=C)NC(=O)c1csc(C2=N[C@@H]3c4csc(n4)[C@H]4NC(=O)c5csc(n5)[C@H]([C@](C)(O)[C@@H](C)O)NC(=O)[C@H]5CSC(=N5)/C(=C/C)NC(=O)[C@H]([C@@H](C)O)NC(=O)c5csc(n5)[C@]3(CC2)NC(=O)[C@H](C)NC(=O)C(=C)NC(=O)[C@H](C)NC(=O)[C@H]([C@@H](C)CC)N[C@@H]2C=Cc3c([C@H](C)O)cc(nc3[C@H]2O)C(=O)O[C@@H]4C)n1)C(N)=O [Thiostrepton] | significantly reduced | significantly reduced | reduced | reduced |  |  |  |  |  |  |  |  |  |  |  |  | 
2 | B1 |  |  |  |  | markedly increased | increased | increased | 4.4 | 0.8 | 1.5 | 1.7 | 0.6 | 2.2 | 2.8 | not altered | increased | about 2.3 folds
